Numbering of substitutions follows the chain as printed.
T1: human CDCP1 on tumor cells (human, UniProt Q9H5V8 30-836)
T1 sequence (looked up): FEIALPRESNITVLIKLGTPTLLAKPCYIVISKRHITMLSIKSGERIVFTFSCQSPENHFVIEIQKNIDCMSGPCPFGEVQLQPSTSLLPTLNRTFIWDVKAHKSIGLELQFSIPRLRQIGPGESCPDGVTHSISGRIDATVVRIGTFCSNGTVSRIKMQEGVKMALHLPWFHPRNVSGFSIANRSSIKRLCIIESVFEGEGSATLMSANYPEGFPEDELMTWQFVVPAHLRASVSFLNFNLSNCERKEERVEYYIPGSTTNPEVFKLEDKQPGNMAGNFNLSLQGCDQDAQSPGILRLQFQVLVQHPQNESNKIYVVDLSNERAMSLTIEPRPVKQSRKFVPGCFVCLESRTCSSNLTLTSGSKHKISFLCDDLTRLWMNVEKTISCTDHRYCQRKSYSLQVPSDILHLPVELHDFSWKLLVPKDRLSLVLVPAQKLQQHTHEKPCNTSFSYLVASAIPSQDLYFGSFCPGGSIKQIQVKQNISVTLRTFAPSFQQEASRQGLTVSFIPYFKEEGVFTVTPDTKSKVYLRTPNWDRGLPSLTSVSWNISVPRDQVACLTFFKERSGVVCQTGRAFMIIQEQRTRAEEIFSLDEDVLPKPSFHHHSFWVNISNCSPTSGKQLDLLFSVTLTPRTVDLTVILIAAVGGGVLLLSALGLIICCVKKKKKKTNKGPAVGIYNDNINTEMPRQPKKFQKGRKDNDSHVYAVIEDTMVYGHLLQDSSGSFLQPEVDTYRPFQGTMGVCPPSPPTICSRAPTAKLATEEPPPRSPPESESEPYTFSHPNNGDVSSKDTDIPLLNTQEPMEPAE

T2: huCDCP1-his (human, UniProt Q9H5V8 30-667, limits assumed)
T2 construct: also called human CDCP1 antigen; not shown: his tag
T2 sequence (looked up): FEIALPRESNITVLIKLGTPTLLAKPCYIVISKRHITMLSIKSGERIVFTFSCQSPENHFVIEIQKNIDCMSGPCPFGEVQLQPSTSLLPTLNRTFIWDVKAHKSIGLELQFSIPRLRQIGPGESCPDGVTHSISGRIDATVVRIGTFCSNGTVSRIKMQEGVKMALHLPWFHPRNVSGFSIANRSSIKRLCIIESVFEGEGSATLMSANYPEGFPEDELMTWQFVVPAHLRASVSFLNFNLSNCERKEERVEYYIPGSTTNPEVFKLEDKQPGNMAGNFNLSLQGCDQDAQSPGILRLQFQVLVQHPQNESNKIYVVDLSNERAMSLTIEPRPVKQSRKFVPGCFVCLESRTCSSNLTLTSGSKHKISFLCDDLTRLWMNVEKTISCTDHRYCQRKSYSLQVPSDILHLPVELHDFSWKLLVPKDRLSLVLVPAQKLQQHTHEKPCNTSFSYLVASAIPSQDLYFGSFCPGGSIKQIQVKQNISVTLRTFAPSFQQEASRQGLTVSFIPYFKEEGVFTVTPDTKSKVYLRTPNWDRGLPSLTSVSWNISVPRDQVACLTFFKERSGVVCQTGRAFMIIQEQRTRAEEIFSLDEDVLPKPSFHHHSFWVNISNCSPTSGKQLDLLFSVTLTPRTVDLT

T3: HuCDCP1-C (human, UniProt Q9H5V8 30-667)
T3 construct: range 30-667; expressed in HEK-293T, purified by Fc/his tag; also called human CDCP1-C; full-length extracellular domain of human CDCP1; not shown: Fc or his tag
T3 sequence (looked up): T2 sequence (looked up)

B1: 1CP-117-MMAE (antibody, human IgG1, kappa, V domains shown)
VH: QVQLVQSGSELKKPGASVKVSCKASGYTLTDFSMHWVRQAPGQGLEWMGWINTETGAPTYADDFKGRFVLSLDTSVSTAYLQISSLKAEDTAVYYCSRGRDYDPHFDYWGQGTLVTVSS
VL: EIVLTQSPATLSLSPGERATLSCRASQSISDFLHWYQQKPGQSPRLLIKYASQSISGIPARFSGSGSGSDFTLTISSVEPEDFAVYYCQSAHSFPYTFGQGTKLEIKR
modifications: vc-MMAE coupled after reduction, sites not stated; DAR 4.8
B2: 1CP-125-MMAE (antibody, human IgG1, kappa, V domains shown)
VH: QVQLVQSGAEVKKPGASVKVSCKASGYNFISYWLHWVRQAPGQGLEWMGGIYPGNTDTTYNQKFKGRVTMTADTSTSTVYMELSSLRSEDTAVYYCIRYDYDRGMDYWGQGTLVTVSS
VL: DIQMTQSPSSLSASVGDRVTITCRASEDIYYRLAWYQQKPGKAPKLLISGATALETGVPSRFSGSGSGKDYTFTISSLQPEDIATYYCQHYWNIPWTFGQGTKVEIKR
modifications: vc-MMAE coupled after reduction, sites not stated; DAR 4.3
B3: 1CP-152-MMAE (antibody, human IgG1, kappa, V domains shown)
VH: EVQLVESGGGLVQPGRSLRLSCTTSGLTFTHYHMSWVRQAPGKGLEWVAIIRNKAYGYTTDYSASVRGRFTISRDDSKSILYLQMNSLKTEDTAVYYCVREGGYGYDGTFAYWGQGTLVTVSS
VL: DIQMTQSPSSLSASVGDRVTITCRASESVDNYGISFMNWFQQKPGQAPKLLIYAASNQGSGVPSRFSGSGSGTDFTLTISSMQPEDFATYYCQQSKEVPRTFGGGTKVEIKR
modifications: vc-MMAE coupled after reduction, sites not stated; DAR 4.5
B4: SB7 (antibody, V domains shown)
VH: QVQLQQSGPELVSPGESVKISCKGSGYTFTDYAVHWVKQSHSKSLEWIGVKSVYYGITKYSQNFKDKATMTVDKSSSTAYMELARLTSEDSAIYYCARDSYGSSRGYFDYWGQGTTLTVSS
VL: DIKMTQSPSSIYVSPGERVTITCKASQDINSFLSWFQQKPGKSPKTLIYRANRLVDGVPSRFSGSGSGQDYSLTISSLEYEDMGIYYCLQYDEFPRTFGGGTKLEIK
notes: single B cell antibody, expressed in CHO
B5: SB1 (antibody, V domains shown)
VH: QVQLQQSGPDLVRPGESVKISCKGSGYTFTDHAIHWVRQSHAKSLEWIGVISFSYDNTKYNQNFKGKATMTVDKSSNTAYMELARLTSEDSAIYYCARDCYGSNRGYFDYWGQGTTLTVSS
VL: DIRMTQSPSSMYASLGERVTITCKASQDINRFLSWFLQRPGKAPKTLIYRANNLVEGVPSRFSGSGSGQDYSLIISNLEYEDMGIYYCLQYDEFPRTFGGGTKLEIK
notes: as for B4
B6: SB6 (antibody, V domains shown)
VH: QGQMQQSGAELVKPGASVKLSCKTSGFTFNSSYITWLKQKPGQSLEWIAWIFAGTGGTYYNEKFTDKAQLTVDTTSSTAYMQFSSLTTEDSAIYYCARHGLGYDYWGQGTTLTVSS
VL: SIVMTQTPKFLLVSAGDRVTITCKASQSVNTDVAWYQQKSGQSPKLLIYSASNRYTGVPDRFTGSGYGTDFTFTISTVQAEDLAVYFCQQDHSSPPWTFGGGTKLEIK
notes: as for B4
B7: SB4 (antibody, V domains shown)
VH: QVQLQQSGAELVRPGTSVKISCKASGYTFTNYWLGWVKQRPGHGLEWIGDNYPGDNYRNFNEKFKGKATLTTDASSSTAYLQLSSLISEDSAVYFCTRSGGSRYYTMDYWGQGTSVTVSS
VL: DIVMTQAAFSNPVTLGTSASISCRSSRSLLHNNGITYLYWYLQKPGQSPQLLIYQMSNLASGVPDRFHSSGSGTDFTLSISRVEAEDVGVYYCAQNLDLPYTFGGGTKLEIK
notes: as for B4
B8: SB2 (antibody, V domains shown)
VH: DVKLVESGGGLVKPGGSLKLSCAASGFTFSSYTMSWVRQTPEKRLEWVATISSGGIYTYYPDSVKGRFTISRDNAKDTLYLQMNSLRSEDTAVYYCSSPHSYAISYGYFDYWGQGTTLTVSS
VL: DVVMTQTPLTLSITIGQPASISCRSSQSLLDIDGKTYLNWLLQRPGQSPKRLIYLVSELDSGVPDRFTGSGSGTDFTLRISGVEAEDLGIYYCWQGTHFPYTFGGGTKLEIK
notes: as for B4
B9: SB3 (antibody, V domains shown)
VH: B8 VH with K13E, T28P, N84S
VL: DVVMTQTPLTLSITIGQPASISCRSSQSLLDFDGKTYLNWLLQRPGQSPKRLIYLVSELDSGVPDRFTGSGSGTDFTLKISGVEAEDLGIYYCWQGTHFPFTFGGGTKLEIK
notes: as for B4
B10: 1CP-064 (antibody, V domains shown)
VH: EVKLVESGPGILQPSQTLSLTCSFSGFSLSTSGMGVGWIRQPSGKGLEWLAHIWWDDVKRYNPALKSRLTISKDTSSSQVFLKIASVDTADTATYYCARMGGKVPWFAYWGQGTTVTVSS
VL: DVVMTQTPASLAVSLGQRATISCRASESVDSYGNSFMHWYQQKPGQPPKLLIYLASNLESGVPARFSGSGSRTDFTLTIDPVEADDAATYYCQQNNEDPWTFGGGTKLEIK
notes: murine hybridoma mAb
B11: 1CP-062 (antibody, V domains shown)
VH: EVKLVESGPGLVAPSQSLSITCTVSGFSLTTYGVHWVRQPPGKGLEWLVVIWSDGNTTYNSALKSRLSINKDNSKSQVFLKMNSLQTDDTAMYYCAKNYRNYDYAMDYWGQGTTVTVSS
VL: B10 VL with V2I, L54R, V62I, D80N, A87V, N95S, W100Y
notes: murine hybridoma mAb
B12: 1CP-063 (antibody, V domains shown)
VH: EVNLKESGPELVKPGASVRISCKASGYTFTSYYIHWVKQRPGQGLEWIGWIYPGNVNSKYNEKFKGKVTLTADKSSITAYMQLSSLTSEDSAVYFCAREDYGHYYAMDYWGQGTTVTVSS
VL: DIVMTQSPSSMYASLGERVTITCKASQDIKSYLSWYQQKPWKSPKTLIYYATSLADGVPSRFSGSGSGQDYSLTISSLESDDTATYYCLQYGESPWTFGGGTKLEIK
notes: murine hybridoma mAb
B13: 1CP-065 (antibody, V domains shown)
VH: EVTLKESGAELVRPGALVKLSCKASGFNIKDYYMHWVKQRPEQGLEWIGWIDPENDNTIYDPKFQGKASITADTSSNTAYLQLSSLTSEDTAVYYCARFYGSYYYAMDYWGQGTTVTVSS
VL: DIVMTQSPKFMSTSVGDRVSITCKASQDVSTAVTWYQQKPGQSPKLLIYWASTRHTGVPDRFTGSGSGTDYTLTISSVQAEDLALYYCQQHYSTPYTFGGGTKLEIK
notes: murine hybridoma mAb
B14: SB8 (antibody, V domains shown)
VH: QVTLKESGPGILKPSQTLSLTCSFSGFSLSTSGVGVGWIRQPSGKGLEWLAHIWWDDEKYYNPSLKSHFTISKDTSRNQVFLKITSVDTADTATYYCVKEGDGMDYWGQGTSVTVSS
VL: QAVVTQESALTTSPGETVTLTCRSSTGAVATSNYANWVQEKPDHLFTGLIGGTNNRVPGVPARFSGSLIGDKAALTITGAQTEDEAIYFCALWYSNHWVFGGGTKLTVL
notes: as for B4

What follows are binders tested against T1, human CDCP1 on tumor cells (assay: cell-based or functional assay).
For B1, the “IC50 (nM), killing of HCT116 cells (120 h), CellTiter-Glo” value (from here on “IC50 (nM), killing of HCT116 cells”) was 1.51 nM.
B2 was tested, and the “IC50 (nM), killing of HCT116 cells” value was 0.668 nM.
B3 was tested, and the “IC50 (nM), killing of HCT116 cells” value was 1.27 nM.

What follows are binders tested against T2, huCDCP1-his (assay: SPR (Caterra), antigen immobilized).
Procedure: (§1) The candidate antibodies obtained from Example 6 were subjected to gene cloning, constructed into an expression vector for a small amount of expression in CHO cells, and purified with an Fc affinity column (AT Protein A Diamond Plus. No. AA402312). Antibody purity was analyzed by HPLC and determined by Nanodrop. High-throughput affinity assay was carried out for a small amount of antibodies by Caterra. […] At the same time, 2 μg/ml antigen human CDCP1-C and 2 μg/ml human CDCP1-B were used for coating, and the antigen-antibody binding capacity was tested by ELISA for verification.
Work on B4 yielded a Kd of 1.74 nM.
For B5, the Kd was 1.61 nM.
In the case of B6, the Kd is reported as 0.722 nM.
B7 was tested, and the Kd was 7.66 nM.
Binder B8 has a Kd of 1.44 nM.
Work on B9 yielded a Kd of 0.201 nM.

Biological target: T1, human CDCP1 on tumor cells
Test: cell-based or functional assay
Remark: another data set of the same source
In the case of B1, the “IC50 (nM), killing of HCC1806 cells (120 h), CellTiter-Glo” value (“IC50 (nM), killing of HCC1806 cells” for short) is reported as 0.894 nM.
With B2 the “IC50 (nM), killing of HCC1806 cells” value was 0.272 nM.
In the case of B3, the “IC50 (nM), killing of HCC1806 cells” value is reported as 0.734 nM.

What follows are binders tested against T1, human CDCP1 on tumor cells (assay: laser confocal microscopy, HCC1806 cells, dye-labeled antibody).
Text: The lysosomes were labeled with red fluorescence, and the relative position changes and colocalization of green fluorescence and red fluorescence in the cells were detected to determine whether the antibodies were colocalized with lysosomes after endocytosis into the cells.
B10: binds.
B11: binds.
B12: binds.
B13: binds.

The binders below were run against T3, HuCDCP1-C (assay: ELISA, coated antigen).
Procedure: as §1
With B4 the EC50 was 0.034 nM.
In the case of B5, the EC50 is reported as 0.092 nM.
With B6 the EC50 was 0.027 nM.
For B7, the EC50 was 0.071 nM.
B8 gave an EC50 of 0.045 nM.
B9 showed an EC50 of 0.049 nM.

The binders below were run against T1, human CDCP1 on tumor cells (assay: flow cytometry, MDA-MB-231 cells, 1.5 µg/ml).
Procedure: Flow cytometry was used to detect the binding capacity of antibody to tumor cells. MDA-MB-231 cells were subjected to digestion with 5 mM EDTA, centrifuged, and counted, the cells were resuspended with FACS buffer (PBS+2% FBS). Cell density was adjusted to 4×10⁵/ml, 50 μL (2×10⁴ tumor cells) were added per well, an Fc blocker (Human TruStain FcX™, Biolegend, 422302) was added for blocking at room temperature for 10 mins, then the antibody to be tested was added at a final concentration of 1.5 μg/ml. The mixture was incubated out at 4° C. for 30 mins, centrifuged and washed, a secondary antibody (PE anti-human IgG Fc Antibody, Biolegend, 410708) was added for incubation, and then detection was performed using a flow cytometer. Geo-MFI was used as the preliminary criterion for determining antibody-cell binding.
B14: binds.
